# Test results published in PMC4024244 (Human genetics, 2013).
# Target: T1, muscle-specific receptor tyrosine kinase (MuSK), wild type, expressed in HEK-293 (human, UniProt O15146 24-869)
# T1 sequence (looked up): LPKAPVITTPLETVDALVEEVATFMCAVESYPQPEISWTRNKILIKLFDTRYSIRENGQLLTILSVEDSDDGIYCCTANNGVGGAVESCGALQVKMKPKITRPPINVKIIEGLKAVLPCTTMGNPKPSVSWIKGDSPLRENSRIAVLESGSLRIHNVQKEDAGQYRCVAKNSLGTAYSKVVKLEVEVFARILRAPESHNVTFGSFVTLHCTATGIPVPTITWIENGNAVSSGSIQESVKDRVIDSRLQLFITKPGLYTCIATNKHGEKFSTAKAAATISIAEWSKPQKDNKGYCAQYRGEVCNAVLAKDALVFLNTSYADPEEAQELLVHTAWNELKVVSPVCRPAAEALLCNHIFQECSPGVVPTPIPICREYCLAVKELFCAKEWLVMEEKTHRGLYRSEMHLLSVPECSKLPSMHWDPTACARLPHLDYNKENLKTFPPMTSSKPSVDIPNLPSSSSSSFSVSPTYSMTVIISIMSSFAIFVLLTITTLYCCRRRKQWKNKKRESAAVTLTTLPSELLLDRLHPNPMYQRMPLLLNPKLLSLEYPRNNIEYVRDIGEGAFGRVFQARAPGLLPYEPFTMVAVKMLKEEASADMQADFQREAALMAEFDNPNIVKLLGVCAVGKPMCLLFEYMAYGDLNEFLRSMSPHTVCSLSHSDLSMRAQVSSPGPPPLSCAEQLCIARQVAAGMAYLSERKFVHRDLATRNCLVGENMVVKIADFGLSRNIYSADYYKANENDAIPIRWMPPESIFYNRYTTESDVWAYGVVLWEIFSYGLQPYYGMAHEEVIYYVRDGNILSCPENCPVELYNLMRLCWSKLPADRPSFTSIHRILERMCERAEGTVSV
# Assay: co-IP
row,Binder,percent reduction of binding to MuSK against WT ColQ [%]
1,"ColQ p.Asp370Asn (natural protein, human, UniProt Q9Y215-1 23-455, looked up) QPTFINSVLPISAALPSLDQKKRGGHKACCLLTPPPPPLFPPPFFRGGRSPLLSPDMKNLMLELETSQSPCMQGSLGSPGPPGPQGPPGLPGKTGPKGEKGELGRPGRKGRPGPPGVPGMPGPIGWPGPEGPRGEKGDLGMMGLPGSRGPMGSKGYPGSRGEKGSRGEKGDLGPKGEKGFPGFPGMLGQKGEMGPKGEPGIAGHRGPTGRPGKRGKQGQKGDSGVMGPPGKPGPSGQPGRPGPPGPPPAGQLIMGPKGERGFPGPPGRCLCGPTMNVNNPSYGESVYGPSSPRVPVIFVVNNQEELERLNTQNAIAFRRDQRSLYFKDSLGWLPIQLTPFYPVDYTANQHGTCGDGLLQPGEECDDGNSDVGDDCIRCHRAYCGDGHRHEGVEDCDGSDFGYLTCETYLPGSYGDLQCTQYCYIDSTPCRYFT",1.5
2,"ColQ p.Gly423Val (natural protein, human, UniProt Q9Y215-1 23-455, looked up) QPTFINSVLPISAALPSLDQKKRGGHKACCLLTPPPPPLFPPPFFRGGRSPLLSPDMKNLMLELETSQSPCMQGSLGSPGPPGPQGPPGLPGKTGPKGEKGELGRPGRKGRPGPPGVPGMPGPIGWPGPEGPRGEKGDLGMMGLPGSRGPMGSKGYPGSRGEKGSRGEKGDLGPKGEKGFPGFPGMLGQKGEMGPKGEPGIAGHRGPTGRPGKRGKQGQKGDSGVMGPPGKPGPSGQPGRPGPPGPPPAGQLIMGPKGERGFPGPPGRCLCGPTMNVNNPSYGESVYGPSSPRVPVIFVVNNQEELERLNTQNAIAFRRDQRSLYFKDSLGWLPIQLTPFYPVDYTADQHGTCGDGLLQPGEECDDGNSDVGDDCIRCHRAYCGDGHRHEGVEDCDGSDFVYLTCETYLPGSYGDLQCTQYCYIDSTPCRYFT",16.8
3,"ColQ p.Cys397Ser (natural protein, human, UniProt Q9Y215-1 23-455, looked up) QPTFINSVLPISAALPSLDQKKRGGHKACCLLTPPPPPLFPPPFFRGGRSPLLSPDMKNLMLELETSQSPCMQGSLGSPGPPGPQGPPGLPGKTGPKGEKGELGRPGRKGRPGPPGVPGMPGPIGWPGPEGPRGEKGDLGMMGLPGSRGPMGSKGYPGSRGEKGSRGEKGDLGPKGEKGFPGFPGMLGQKGEMGPKGEPGIAGHRGPTGRPGKRGKQGQKGDSGVMGPPGKPGPSGQPGRPGPPGPPPAGQLIMGPKGERGFPGPPGRCLCGPTMNVNNPSYGESVYGPSSPRVPVIFVVNNQEELERLNTQNAIAFRRDQRSLYFKDSLGWLPIQLTPFYPVDYTADQHGTCGDGLLQPGEECDDGNSDVGDDSIRCHRAYCGDGHRHEGVEDCDGSDFGYLTCETYLPGSYGDLQCTQYCYIDSTPCRYFT",6.7
4,"ColQ p.Tyr404Asp (natural protein, human, UniProt Q9Y215-1 23-455, looked up) QPTFINSVLPISAALPSLDQKKRGGHKACCLLTPPPPPLFPPPFFRGGRSPLLSPDMKNLMLELETSQSPCMQGSLGSPGPPGPQGPPGLPGKTGPKGEKGELGRPGRKGRPGPPGVPGMPGPIGWPGPEGPRGEKGDLGMMGLPGSRGPMGSKGYPGSRGEKGSRGEKGDLGPKGEKGFPGFPGMLGQKGEMGPKGEPGIAGHRGPTGRPGKRGKQGQKGDSGVMGPPGKPGPSGQPGRPGPPGPPPAGQLIMGPKGERGFPGPPGRCLCGPTMNVNNPSYGESVYGPSSPRVPVIFVVNNQEELERLNTQNAIAFRRDQRSLYFKDSLGWLPIQLTPFYPVDYTADQHGTCGDGLLQPGEECDDGNSDVGDDCIRCHRADCGDGHRHEGVEDCDGSDFGYLTCETYLPGSYGDLQCTQYCYIDSTPCRYFT",7.4
5,"ColQ p.Cys400Tyr (natural protein, human, UniProt Q9Y215-1 23-455, looked up) QPTFINSVLPISAALPSLDQKKRGGHKACCLLTPPPPPLFPPPFFRGGRSPLLSPDMKNLMLELETSQSPCMQGSLGSPGPPGPQGPPGLPGKTGPKGEKGELGRPGRKGRPGPPGVPGMPGPIGWPGPEGPRGEKGDLGMMGLPGSRGPMGSKGYPGSRGEKGSRGEKGDLGPKGEKGFPGFPGMLGQKGEMGPKGEPGIAGHRGPTGRPGKRGKQGQKGDSGVMGPPGKPGPSGQPGRPGPPGPPPAGQLIMGPKGERGFPGPPGRCLCGPTMNVNNPSYGESVYGPSSPRVPVIFVVNNQEELERLNTQNAIAFRRDQRSLYFKDSLGWLPIQLTPFYPVDYTADQHGTCGDGLLQPGEECDDGNSDVGDDCIRYHRAYCGDGHRHEGVEDCDGSDFGYLTCETYLPGSYGDLQCTQYCYIDSTPCRYFT",5

# Target: T2, MuSK protein (Millipore) (UniProt O15146 24-495)
# T2 chain: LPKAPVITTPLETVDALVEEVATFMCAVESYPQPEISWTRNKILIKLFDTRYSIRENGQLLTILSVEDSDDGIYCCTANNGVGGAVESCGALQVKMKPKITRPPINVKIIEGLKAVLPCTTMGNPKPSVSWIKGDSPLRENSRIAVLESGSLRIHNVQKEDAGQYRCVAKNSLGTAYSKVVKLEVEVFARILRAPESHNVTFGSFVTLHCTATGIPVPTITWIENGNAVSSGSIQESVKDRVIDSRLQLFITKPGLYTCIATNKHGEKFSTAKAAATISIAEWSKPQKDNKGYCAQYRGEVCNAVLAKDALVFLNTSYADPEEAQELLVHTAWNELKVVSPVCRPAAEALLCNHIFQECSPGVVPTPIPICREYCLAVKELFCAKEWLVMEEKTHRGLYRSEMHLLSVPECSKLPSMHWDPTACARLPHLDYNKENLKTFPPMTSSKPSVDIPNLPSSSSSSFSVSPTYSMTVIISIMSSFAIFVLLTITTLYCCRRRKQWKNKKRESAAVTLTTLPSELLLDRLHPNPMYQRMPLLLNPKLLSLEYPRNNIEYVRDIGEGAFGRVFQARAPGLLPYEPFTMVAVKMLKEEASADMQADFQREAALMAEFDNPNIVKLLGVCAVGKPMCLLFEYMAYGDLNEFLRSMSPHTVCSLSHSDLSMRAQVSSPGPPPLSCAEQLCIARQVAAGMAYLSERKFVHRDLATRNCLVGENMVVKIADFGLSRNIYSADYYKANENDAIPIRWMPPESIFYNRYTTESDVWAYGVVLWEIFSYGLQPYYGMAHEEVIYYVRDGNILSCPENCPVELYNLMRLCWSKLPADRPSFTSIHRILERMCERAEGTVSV
# Assay: plate overlay binding assay with
row,Binder,other [%]
1,"purified A12 asymmetric form of AChE with ColQ p.Cys397Ser (complex, human) chain 1: QPTFINSVLPISAALPSLDQKKRGGHKACCLLTPPPPPLFPPPFFRGGRSPLLSPDMKNLMLELETSQSPCMQGSLGSPGPPGPQGPPGLPGKTGPKGEKGELGRPGRKGRPGPPGVPGMPGPIGWPGPEGPRGEKGDLGMMGLPGSRGPMGSKGYPGSRGEKGSRGEKGDLGPKGEKGFPGFPGMLGQKGEMGPKGEPGIAGHRGPTGRPGKRGKQGQKGDSGVMGPPGKPGPSGQPGRPGPPGPPPAGQLIMGPKGERGFPGPPGRCLCGPTMNVNNPSYGESVYGPSSPRVPVIFVVNNQEELERLNTQNAIAFRRDQRSLYFKDSLGWLPIQLTPFYPVDYTADQHGTCGDGLLQPGEECDDGNSDVGDDSIRCHRAYCGDGHRHEGVEDCDGSDFGYLTCETYLPGSYGDLQCTQYCYIDSTPCRYFT chain 2: EGREDAELLVTVRGGRLRGIRLKTPGGPVSAFLGIPFAEPPMGPRRFLPPEPKQPWSGVVDATTFQSVCYQYVDTLYPGFEGTEMWNPNRELSEDCLYLNVWTPYPRPTSPTPVLVWIYGGGFYSGASSLDVYDGRFLVQAERTVLVSMNYRVGAFGFLALPGSREAPGNVGLLDQRLALQWVQENVAAFGGDPTSVTLFGESAGAASVGMHLLSPPSRGLFHRAVLQSGAPNGPWATVGMGEARRRATQLAHLVGCPPGGTGGNDTELVACLRTRPAQVLVNHEWHVLPQESVFRFSFVPVVDGDFLSDTPEALINAGDFHGLQVLVGVVKDEGSYFLVYGAPGFSKDNESLISRAEFLAGVRVGVPQVSDLAAEAVVLHYTDWLHPEDPARLREALSDVVGDHNVVCPVAQLAGRLAAQGARVYAYVFEHRASTLSWPLWMGVPHGYEIEFIFGIPLDPSRNYTAEEKIFAQRLMRYWANFARTGDPNEPRDPKAPQWPPYTAGAQQYVSLDLRPLEVRRGLRAQACAFWNRFLPKLLSATDTLDEAERQWKAEFHRWSSYMVHWKNQFDHYSKQDRCSDL",18
2,"purified A12 asymmetric form of AChE with ColQ p.Asp370Asn (complex, human) chain 1: QPTFINSVLPISAALPSLDQKKRGGHKACCLLTPPPPPLFPPPFFRGGRSPLLSPDMKNLMLELETSQSPCMQGSLGSPGPPGPQGPPGLPGKTGPKGEKGELGRPGRKGRPGPPGVPGMPGPIGWPGPEGPRGEKGDLGMMGLPGSRGPMGSKGYPGSRGEKGSRGEKGDLGPKGEKGFPGFPGMLGQKGEMGPKGEPGIAGHRGPTGRPGKRGKQGQKGDSGVMGPPGKPGPSGQPGRPGPPGPPPAGQLIMGPKGERGFPGPPGRCLCGPTMNVNNPSYGESVYGPSSPRVPVIFVVNNQEELERLNTQNAIAFRRDQRSLYFKDSLGWLPIQLTPFYPVDYTANQHGTCGDGLLQPGEECDDGNSDVGDDCIRCHRAYCGDGHRHEGVEDCDGSDFGYLTCETYLPGSYGDLQCTQYCYIDSTPCRYFT chain 2: EGREDAELLVTVRGGRLRGIRLKTPGGPVSAFLGIPFAEPPMGPRRFLPPEPKQPWSGVVDATTFQSVCYQYVDTLYPGFEGTEMWNPNRELSEDCLYLNVWTPYPRPTSPTPVLVWIYGGGFYSGASSLDVYDGRFLVQAERTVLVSMNYRVGAFGFLALPGSREAPGNVGLLDQRLALQWVQENVAAFGGDPTSVTLFGESAGAASVGMHLLSPPSRGLFHRAVLQSGAPNGPWATVGMGEARRRATQLAHLVGCPPGGTGGNDTELVACLRTRPAQVLVNHEWHVLPQESVFRFSFVPVVDGDFLSDTPEALINAGDFHGLQVLVGVVKDEGSYFLVYGAPGFSKDNESLISRAEFLAGVRVGVPQVSDLAAEAVVLHYTDWLHPEDPARLREALSDVVGDHNVVCPVAQLAGRLAAQGARVYAYVFEHRASTLSWPLWMGVPHGYEIEFIFGIPLDPSRNYTAEEKIFAQRLMRYWANFARTGDPNEPRDPKAPQWPPYTAGAQQYVSLDLRPLEVRRGLRAQACAFWNRFLPKLLSATDTLDEAERQWKAEFHRWSSYMVHWKNQFDHYSKQDRCSDL",15
